{"source": "paper PMC10620080", "about": "“The sex-specific factor SOA controls dosage compensation in Anopheles mosquitoes”", "binders": {"B1": {"name": "CA10 dsDNA 20mer (dsDNA)", "DNA 1": "CACACACACACACACACACA", "DNA 2": "TGTGTGTGTGTGTGTGTGTG"}}, "biological_target": "T1, MBP-SOA(1-331), myb+BTB (Anopheles gambiae, UniProt Q7Q6N8 1-331)", "T1 sequence": "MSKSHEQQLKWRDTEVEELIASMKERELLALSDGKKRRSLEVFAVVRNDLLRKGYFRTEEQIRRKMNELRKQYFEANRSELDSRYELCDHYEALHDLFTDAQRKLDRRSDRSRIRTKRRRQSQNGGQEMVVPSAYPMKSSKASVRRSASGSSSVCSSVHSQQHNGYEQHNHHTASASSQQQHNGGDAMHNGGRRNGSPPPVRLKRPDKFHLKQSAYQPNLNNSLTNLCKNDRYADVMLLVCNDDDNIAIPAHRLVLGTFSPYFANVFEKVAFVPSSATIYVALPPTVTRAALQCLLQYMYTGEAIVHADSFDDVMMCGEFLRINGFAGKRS", "experiment": "fluorescence polarization; FP: 10 mM Na-HEPES pH 7.4, 150 mM NaCl, 1 mM TCEP, 0.1 g/l BSA, 5% glycerol, 0.05% Triton X-100, 5 nM DNA, 20 C; EMSA: 20 mM HEPES-KOH pH 7.5, 100 mM KCl, 0.05% NP-40, room temperature", "conditions": "protein: recombinant; tags: N-terminal His6-MBP; label: Cy5 on one strand; blunt"}
{"binder": "B1", "values": [{"measurement": "Kd", "result": 40, "unit": "nM"}]}
